The subject of assay [1] is phospho-STAT4 in GFP+ T cells. The experiment in a line: Transactivation: phospho-STAT4 in GFP+ CAR-negative T cells after 1 hour co-culture with CAR-mbIL12 T cells, flow cytometry (Example 6; Table 20). Type of assay: cell-based, human. On the procedure: (§1) Membrane bound IL12 (mbIL12) was expressed in tandem with a CD19-CAR and tested in primary human T cells. On day 0, primary human T cells were stimulated with Dynabeads (T-expander CD3/CD28) at a 3:1 bead:cell ratio in media containing 10% fetal bovine serum (FBS). The next day, lentivirus with mbIL12 in tandem with a CD19-CAR construct was added in the presence of reduced serum (5% FBS). After 7 days of T cell expansion, increasing numbers of CAR+ T cells were cocultured with 10,000 GFP+, CAR-negative T cells. At the end of 1 hour of co-culture, the phospho-STAT4 levels within the GFP+ T cells were quantitated by flow cytometry using reagents and methods from BD. To determine the relative amount of IL12 activity that had accumulated in the T cell supernatants during the hour-long co-culture, cell supernatants from the co-culture were transferred to a new plate of GFP+ T cells and incubated for 1 hour. Phospho-STAT4 levels were measured in the GFP+ T cells incubated with the supernatants from the original co-culture. The transactivation ([…] geometric mean fluorescence (MFI) on GFP+ cells in co-culture) and the bystander effect (pSTAT4 geometric MFI on GFP+ T cells in 1 hour supernatants) for a CAR-IL12+:GFP+ ratio of 64 are shown in Table 20.
(§2) The transactivation (pSTAT4 geometric mean fluorescence (MFI) on GFP+ cells in co-culture) and the bystander effect (pSTAT4 geometric MFI on GFP+ T cells in 1 hour supernatants) for the constructs at different ratios are summarized below. For OT-001407, when (a) the CAR-IL12+:GFP+ ratio was 32, the transactivation was 1711 and the bystander effect was −1680, (b) the CAR-IL12+:GFP+ ratio was 16, the transactivation was 1768 and the bystander effect was −1632, (c) the CAR-IL12+:GFP+ ratio was 8, the transactivation was 1433 and the bystander effect was −1603, (d) the CAR-IL12+:GFP+ ratio was 4, the transactivation was 1195 and the bystander effect was −1860, and (e) the CAR-IL12+:GFP+ ratio was 2, the transactivation was 1101 and the bystander effect was −1800. For OT-001356, when (a) the CAR-IL12+:GFP+ ratio was 73.9, the transactivation was 6452 and the bystander effect was −2617, (b) the CAR-IL12+:GFP+ ratio was 37, the transactivation was 6935 and the bystander effect was −1404, (c) the CAR-IL12+:GFP+ ratio was 18.5, the transactivation was 6417 and the bystander effect was −226, (d) the CAR-IL12+:GFP+ ratio was 9.2, the transactivation was 5568 and the bystander effect was −86, (e) the CAR-IL12+:GFP+ ratio was 4.6, the transactivation was 4374 and the bystander effect was −518, and (f) the CAR-IL12+:GFP+ ratio was 2.3, the transactivation was 2839 and the bystander effect was −1093. For OT-001895, when (a) the CAR-IL12+:GFP+ ratio was 34.1, the transactivation was 7699 and the bystander effect was −3724, (b) the CAR-IL12+:GFP+ ratio was 17.1, the transactivation was 7718 and the bystander effect was −2996, (c) the CAR-IL12+:GFP+ ratio was 8.5, the transactivation was 8200 and the bystander effect was −1178, (d) the CAR-IL12+:GFP+ ratio was 4.3, the transactivation was 7172 and the bystander effect was −277, (e) the CAR-IL12+:GFP+ ratio was 2.1, the transactivation was 6095 and the bystander effect was −238, and (f) the CAR-IL12+:GFP+ ratio was 1.1, the transactivation was 4498 and the bystander effect was −136. For OT-002011, when (a) the CAR-IL12+:GFP+ ratio was 75.8, the transactivation was 8086 and the bystander effect was −3531, (b) the CAR-IL12+:GFP+ ratio was 37.9, the transactivation was 8031 and the bystander effect was −2884, (c) the CAR-IL12+:GFP+ ratio was 18.9, the transactivation was 8324 and the bystander effect was −1376, (d) the CAR-IL12+:GFP+ ratio was 9.5, the transactivation was 7765 and the bystander effect was −1133, (e) the CAR-IL12+:GFP+ ratio was 4.7, the transactivation was 6682 and the bystander effect was −566, and (f) the CAR-IL12+:GFP+ ratio was 2.4, the transactivation was 5190 and the bystander effect was −642. […]

In assay [2] the test system is phospho-STAT4 in GFP+ T cells. The experiment in a line: Bystander effect: phospho-STAT4 in GFP+ T cells incubated 1 hour with co-culture supernatants, flow cytometry (Example 6; Table 20). The assay is classed as cell-based, human. As for the experimental part:
as §1, §2
A general note: In flow cytometry, cells or beads pass a laser one at a time.

For another assay, the system named is CD19+ Nalm6 tumors. The experiment in a line: Kaplan-Meier animal survival, Nalm6-Luc NSG model (Example 9; Table 29). The assay is classed as in vivo, NSG mice. As for the experimental part:
(§3) The study was designed to determine if membrane bound IL12 (mbIL12) expressed on CAR-T cells via a CD8 TM domain and CD8 Hinge Region promotes CAR T cell expansion in cis, promotes non-CAR-T cell expansion in trans, and/or increases in vivo CAR T cell efficacy against CD19+ Nalm6 tumors. To test in vivo anti-tumor activity, experiments were performed in NSG mice. Nalm6 cells were transfected with Redifect Red-Fluc (Perkin Elmer) under selection using Puromycin for ˜2 months to generate a line that stably expresses the luciferase reporter; thereafter named Nalm6-Luc. Ten days before tumor implantation, Nalm6-Luc cells were thawed and cultured in puromycin-containing media. On day 0, cells were counted, resuspended in PBS and injected into NSG mice via tail vein. On day 6, mice were imaged for bioluminescent intensity (BLI) and sorted into groups based on their tumor size ensuring that all groups had the same sized tumors. Human T cells were transduced with one of the following constructs as shown in the study design in Table 27:
Percent survival was also measured for each group during the course of the experiment and the following numbers were obtained as shown in Table 29: […]

Assay [3] in a line: Plasma IL12 and IFNgamma levels (Example 10; Table 36). Type of assay: in vivo, NSG mice. Conditions: day 14 post T cell transfer; 1 million CAR+ T cells. On the procedure:
as §3, with “To” for “The study was designed to determine if membrane bound IL12 (mbIL12) expressed on CAR-T cells via a CD8 TM domain and CD8 Hinge Region promotes CAR T cell expansion in cis, promotes non-CAR-T cell expansion in trans, and/or increases in vivo CAR T cell efficacy against CD19+ Nalm6 tumors. To”, “ensure” for “ensuring”, “33:” for “27:”
Thus, anti-tumor efficacy (Table 34) appears to correlate with plasma IL12 and IFNgamma levels.

Results on 1 molecule are retold here after patent US12227551B2, “Membrane bound IL12 compositions and methods for tunable regulation” (Obsidian Therapeutics, Inc., priority 2018, dated 2025).

B1: OT-001356: CD19 CAR; stop; IRES; secreted IL12 (p40 23-328; (G4S)3; p35 57-253); nucleic acid SEQ ID NO: 482 (protein)
chain: IWELKKDVYVVELDWYPDAPGEMVVLTCDTPEEDGITWTLDQSSEVLGSGKTLTIQVKEFGDAGQYTCHKGGEVLSHSLLLLHKKEDGIWSTDILKDQKEPKNKTFLRCEAKNYSGRFTCWWLTTISTDLTFSVKSSRGSSDPQGVTCGAATLSAERVRGDNKEYEYSVECQEDSACPAAEESLPIEVMVDAVHKLKYENYTSSFFIRDIIKPDPPKNLQLKPLKNSRQVEVSWEYPDTWSTPHSYFSLTFCVQVQGKSKREKKDRVFTDKTSATVICRKNASISVRAQDRYYSSSWSEWASVPCSGGGGSGGGGSGGGGSRNLPVATPDPGMFPCLHHSQNLLRAVSNMLQKARQTLEFYPCTSEEIDHEDITKDKTSTVEACLPLELTKNESCLNSRETSFITNGSCLASRKTSFMMALCLSSIYEDLKMYQVEFKTMNAKLLMDPKRQIFLDQNMLAVIDELMQALNFNSETVPQKSSLEEPDFYKTKIKLCILLHAFRIRAVTIDRVMSYLNASGS
As for B1, the “transactivation (pSTAT4 geometric MFI on GFP+ cells in co-culture)” value in assay [1] (CAR-IL12+:GFP+ ratio 2.3) was found to be 2839; in assay [1] (CAR-IL12+:GFP+ ratio 4.6), 4374; in assay [1] (CAR-IL12+:GFP+ ratio 9.2), 5568; in assay [1] (CAR-IL12+:GFP+ ratio 18.5), 6417; in assay [1] (CAR-IL12+:GFP+ ratio 37), 6935; in assay [1] (CAR-IL12+:GFP+ ratio 73.9), 6452. Further, the Transactivation in assay [1] (CAR-IL12+:GFP+ ratio of 64, pSTAT4 geometric MFI on GFP+ cells, 1 hour co-culture) was found to be 6452. The “bystander effect (pSTAT4 geometric MFI on GFP+ T cells in 1 hour supernatants)” value in assay [2] (CAR-IL12+:GFP+ ratio 2.3) is recorded as −1093; in assay [2] (CAR-IL12+:GFP+ ratio 4.6), −518; in assay [2] (CAR-IL12+:GFP+ ratio 9.2), −86; in assay [2] (CAR-IL12+:GFP+ ratio 18.5) it was −226; in assay [2] (CAR-IL12+:GFP+ ratio 37), −1404; in assay [2] (CAR-IL12+:GFP+ ratio 73.9), −2617. In addition, the “Proportion of survival post tumor implant” value in the assay with CD19+ Nalm6 tumors (day 0 post tumor implant) was 100%; in the assay on CD19+ Nalm6 tumors (day 41 post tumor implant) it was 50.0%; with CD19+ Nalm6 tumors (day 43 post tumor implant), 50.0%. Further, the “Day 14 Plasma IFNgamma Levels” value in assay [3] is reported as 13,344 pg/mL. Also, the “Day 14 Plasma IL10 Levels” value in assay [3] was found to be 6.9 pg/mL. The “Day 14 Plasma IL 12 Levels” value in assay [3] was 2,434 pg/mL.
